For 84 variants, reverse-splicing fitness results are on record in the RNAGym collection of RNA variant scans (doi:10.1093/molbev/msab373).

First the molecules themselves.
B1: Azoarcus group I ribozyme (parent)
chain: GUGCCUUGCGCCGGGAAACCACGCAAGGGAUGGUGUCAAAUUCGGCGAAACCUAAGCGCCCGCCCGGGCGUAUGGCAACGCCGAGCCAAGCUUCGGCGCCUGCGCCGAUGAAGGUGUAGAGACUAGACGGCACCCACCUAAGGCAAACGCUAUGGUGAAGGCAUAGUCCAGGGAGUGGCGAAAGUCACACAAACCGG

Variants of B1 are the subject of the data set. In words: reverse-splicing fitness (ratio to wild type); higher = more active; in vitro selection; Mg2+ level not given. Put shortly:
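An in vitro group I ribozyme library with randomized positions was T7-transcribed and gel-purified. In triplicate, 10 pmol RNA in EPPS pH 7.5 was reacted with 50 pmoles of a 30-nt RNA substrate for 1 h at 37 °C across several added MgCl2 levels (1–48 mM), then stopped with EDTA. Products were reverse transcribed from a substrate-complementary primer, PCR-amplified and sequenced (HiSeq 4000). Fitness is a variant's read proportion after selection over that before, normalised to wild type.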
For the variant C82U A111U A145G C150G C169U, the reverse-splicing fitness stood at 0.00863.

On to C82U A111U A145G C150G C169G, for which the reverse-splicing fitness stood at 0.00754.

In the case of C82U A111U A145G C150G C169A, the reverse-splicing fitness amounted to 0.00815.

C82U A111U A145C C150U U176A: the reverse-splicing fitness came to 0.0276.

Regarding C82U A111U A145C C150U U176C, the reverse-splicing fitness is 0.038.

Take C82U A111U A145C C150U U176G: the reverse-splicing fitness stood at 0.011.

For the variant C82U A111U A120U A145G C150G C169U, the reverse-splicing fitness came out at 0.00706.

For C82U A111U A120U A145G C150G C169G, the reverse-splicing fitness was determined as 0.00647.

In the case of C82U A111U A120U A145G C150G C169A, the reverse-splicing fitness amounted to 0.00819.

Regarding C82U A111U A120U A145C C150U C169G U176G, the reverse-splicing fitness turned out to be 0.00171.

As to C82U A111U A120U A145C C150U C169G U176C, the reverse-splicing fitness was determined as 0.00287.

Regarding C82U A111U A120U A145C C150U C169G U176A, the reverse-splicing fitness stood at 0.00283.

On to C82U A111U A120U A145C C150U C169A U176A, for which the reverse-splicing fitness was 0.00217.

Turning to C82U A111U A120U A145C C150U C169A U176G, the reverse-splicing fitness is 0.00178.

As for C82U A111U A120U A145C C150U C169A U176C, the reverse-splicing fitness was 0.00253.

Turning to C82U A111U A120U A145G C150A C169U U176C, the reverse-splicing fitness stood at 0.00345.

Regarding C82U A111U A120U A145G C150A C169U U176A, the reverse-splicing fitness was determined as 0.00439.

In the case of C82U A111U A120U A145G C150A C169U U176G, the reverse-splicing fitness is 0.00228.

Take C82U A111U A145G C150G C169U U176G: the reverse-splicing fitness is 0.00654.

For C82U A111U A145G C150G C169U U176A, the reverse-splicing fitness turned out to be 0.0114.

For C82U A111U A145G C150G C169U U176C, the reverse-splicing fitness is 0.0115.

As for C82U A111U A120U A145G C150G C169G U176A, the reverse-splicing fitness is 0.00749.

For C82U A111U A120U A145G C150G C169G U176C, the reverse-splicing fitness was 0.00477.

For C82U A111U A120U A145G C150G C169G U176G, the reverse-splicing fitness worked out at 0.00365.

Take C82U A111U A120U A145U C150A C169U U176G: the reverse-splicing fitness turned out to be 0.00195.

Take C82U A111U A120U A145U C150A C169U U176A: the reverse-splicing fitness is 0.00233.

Turning to C82U A111U A120U A145U C150A C169U U176C, the reverse-splicing fitness was 0.00234.

On to C82U A111U A145C C150G, for which the reverse-splicing fitness was determined as 0.0299.

On to C82U A111U A145C C150A, for which the reverse-splicing fitness came out at 0.0151.

For the variant C82U A111U A145C C150U, the reverse-splicing fitness is 0.0602.

Regarding C82U A111U A145C U176G, the reverse-splicing fitness amounted to 0.0247.

For the variant C82U A111U A145C U176A, the reverse-splicing fitness came out at 0.0966.

In the case of C82U A111U A145C U176C, the reverse-splicing fitness was 0.141.

For the variant C82U A111U A120U A145U C169A U176G, the reverse-splicing fitness amounted to 0.0017.

Regarding C82U A111U A120U A145U C169A U176A, the reverse-splicing fitness came to 0.00233.

In the case of C82U A111U A120U A145U C169A U176C, the reverse-splicing fitness came out at 0.00301.

Turning to C82U A111U A120U A145C C169U U176C, the reverse-splicing fitness turned out to be 0.0022.

As for C82U A111U A120U A145C C169U U176G, the reverse-splicing fitness amounted to 0.00177.

In the case of C82U A111U A120U A145C C169U U176A, the reverse-splicing fitness is 0.00247.

As for C82U A111U A120U A145G C169U U176C, the reverse-splicing fitness was 0.00323.

Consider C82U A111U A120U A145G C169U U176G, for which the reverse-splicing fitness turned out to be 0.00207.

As for C82U A111U A120U A145G C169U U176A, the reverse-splicing fitness came out at 0.00304.

As to C82U A111U A120U A145U C169U, the reverse-splicing fitness amounted to 0.0039.

Turning to C82U A111U A120U A145U C169G, the reverse-splicing fitness was found to be 0.00303.

With C82U A111U A120U A145U C169A, the reverse-splicing fitness stood at 0.00251.

With C82U A111U A120U A145G C150U C169G U176G, the reverse-splicing fitness was found to be 0.00243.

Consider C82U A111U A120U A145G C150U C169G U176C, for which the reverse-splicing fitness was found to be 0.00383.

Regarding C82U A111U A120U A145G C150U C169G U176A, the reverse-splicing fitness turned out to be 0.00606.

In the case of C82U A111U A145G C150A C169G U176A, the reverse-splicing fitness was 0.0146.

With C82U A111U A145G C150A C169G U176C, the reverse-splicing fitness amounted to 0.0254.

In the case of C82U A111U A145G C150A C169G U176G, the reverse-splicing fitness amounted to 0.00627.

For the variant C82U A111U A145C C150U C169G, the reverse-splicing fitness was 0.00801.

Consider C82U A111U A145C C150U C169A, for which the reverse-splicing fitness was found to be 0.00776.

As for C82U A111U A145C C150U C169U, the reverse-splicing fitness was 0.0089.

Consider C82U A111U A120U A145U C150G U176C, for which the reverse-splicing fitness was determined as 0.0047.

Turning to C82U A111U A120U A145U C150G U176G, the reverse-splicing fitness was found to be 0.00226.

Regarding C82U A111U A120U A145U C150G U176A, the reverse-splicing fitness amounted to 0.00312.

For the variant C82U A111U A120U C150U C169A U176C, the reverse-splicing fitness was 0.00314.

Regarding C82U A111U A120U C150U C169A U176A, the reverse-splicing fitness was determined as 0.0038.

Consider C82U A111U A120U C150U C169A U176G, for which the reverse-splicing fitness came out at 0.00205.

C82U A111U A145C C150U C169G U176A: the reverse-splicing fitness amounted to 0.0199.

For the variant C82U A111U A145C C150U C169G U176G, the reverse-splicing fitness is 0.00575.

As for C82U A111U A145C C150U C169G U176C, the reverse-splicing fitness is 0.0104.

In the case of C82U A111U A145C C169G, the reverse-splicing fitness came to 0.0091.

As to C82U A111U A145C C169A, the reverse-splicing fitness stood at 0.00671.

Regarding C82U A111U A145C C169U, the reverse-splicing fitness came to 0.0102.

In the case of C82U A111U A145G C150G C169A U176C, the reverse-splicing fitness worked out at 0.0112.

Regarding C82U A111U A145G C150G C169A U176A, the reverse-splicing fitness was 0.0125.

C82U A111U A145G C150G C169A U176G: the reverse-splicing fitness was determined as 0.0074.

For C82U A111U A120U A145C C169G U176A, the reverse-splicing fitness came out at 0.00238.

For C82U A111U A120U A145C C169G U176G, the reverse-splicing fitness was found to be 0.0016.

Take C82U A111U A120U A145C C169G U176C: the reverse-splicing fitness amounted to 0.00221.

For the variant C82U A111U A145G C150A C169A U176G, the reverse-splicing fitness is 0.00768.

For C82U A111U A145G C150A C169A U176A, the reverse-splicing fitness is 0.0186.

Regarding C82U A111U A145G C150A C169A U176C, the reverse-splicing fitness was found to be 0.0216.

C82U A111U A120U A145U C150G C169U: the reverse-splicing fitness was 0.00272.

Take C82U A111U A120U A145U C150G C169G: the reverse-splicing fitness is 0.00274.

In the case of C82U A111U A120U A145U C150G C169A, the reverse-splicing fitness amounted to 0.0034.

On to C82U A111U A145C C150A C169U U176A, for which the reverse-splicing fitness amounted to 0.0138.

Regarding C82U A111U A145C C150A C169U U176G, the reverse-splicing fitness turned out to be 0.00574.

Regarding C82U A111U A145C C150A C169U U176C, the reverse-splicing fitness amounted to 0.00882.

For the variant C82U A111U A120U A145G C150U C169A U176A, the reverse-splicing fitness was determined as 0.00543.

In the case of C82U A111U A120U A145G C150U C169A U176C, the reverse-splicing fitness came out at 0.0032.

Regarding C82U A111U A120U A145G C150U C169A U176G, the reverse-splicing fitness was determined as 0.00269.
